These are literature values, as cited in article PMC6324986.

In this data set the target is Bub1 (Homo sapiens) (UniProt O43683).
Chain of UniProt O43683 (O43683 whole entry): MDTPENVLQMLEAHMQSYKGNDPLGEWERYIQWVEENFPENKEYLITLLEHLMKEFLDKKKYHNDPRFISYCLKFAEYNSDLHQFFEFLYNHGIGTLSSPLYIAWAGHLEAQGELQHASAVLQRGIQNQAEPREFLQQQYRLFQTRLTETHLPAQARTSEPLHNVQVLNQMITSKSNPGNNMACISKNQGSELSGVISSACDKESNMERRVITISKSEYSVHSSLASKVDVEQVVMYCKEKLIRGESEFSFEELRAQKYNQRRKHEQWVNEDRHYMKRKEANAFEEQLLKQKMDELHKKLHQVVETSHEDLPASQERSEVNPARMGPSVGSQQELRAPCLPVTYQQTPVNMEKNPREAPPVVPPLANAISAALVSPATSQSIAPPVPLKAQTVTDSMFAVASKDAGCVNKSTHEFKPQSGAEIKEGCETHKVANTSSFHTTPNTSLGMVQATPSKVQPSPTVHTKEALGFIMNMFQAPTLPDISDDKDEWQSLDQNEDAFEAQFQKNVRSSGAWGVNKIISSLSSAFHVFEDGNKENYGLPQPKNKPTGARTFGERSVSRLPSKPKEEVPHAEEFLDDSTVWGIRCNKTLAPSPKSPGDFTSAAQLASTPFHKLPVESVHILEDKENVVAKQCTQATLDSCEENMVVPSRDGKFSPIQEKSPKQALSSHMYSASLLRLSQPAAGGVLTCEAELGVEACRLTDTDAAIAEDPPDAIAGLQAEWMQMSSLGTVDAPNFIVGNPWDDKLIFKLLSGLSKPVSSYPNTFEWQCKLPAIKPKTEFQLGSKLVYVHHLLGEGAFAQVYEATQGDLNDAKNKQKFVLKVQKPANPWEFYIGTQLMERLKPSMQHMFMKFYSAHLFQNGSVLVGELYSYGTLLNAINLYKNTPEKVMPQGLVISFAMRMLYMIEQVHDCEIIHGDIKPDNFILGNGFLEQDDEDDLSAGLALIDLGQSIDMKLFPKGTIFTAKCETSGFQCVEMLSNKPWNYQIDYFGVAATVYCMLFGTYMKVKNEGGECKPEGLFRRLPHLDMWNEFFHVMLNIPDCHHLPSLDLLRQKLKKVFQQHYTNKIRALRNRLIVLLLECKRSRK

Regarding Mad1 (from UniProt Q9Y6D9), the Kd is over 3000 nM.

One may read the Kd as a measure of binding affinity in units of concentration.
